From patent US20200055896A1, “SUBSTRATES RECOGNIZED BY FIBROBLAST ACTIVATION PROTEIN (FAP) AND METHODS OF USING THE SAME” (GENENTECH, INC., priority 2017, published 2020) come the findings set out here.

No end group written: not given here.

Type in all cases: biochemical
The target of one data set is T1, recombinant mouse FAP (Mus musculus, UniProt P97321).
T1 construct: (residues L26-D760 and L26-D761, respectively); octa-His (N); made in house; host or cells: transiently transfected CHO cells (conditioned media)
T1 sequence (P97321 26-761): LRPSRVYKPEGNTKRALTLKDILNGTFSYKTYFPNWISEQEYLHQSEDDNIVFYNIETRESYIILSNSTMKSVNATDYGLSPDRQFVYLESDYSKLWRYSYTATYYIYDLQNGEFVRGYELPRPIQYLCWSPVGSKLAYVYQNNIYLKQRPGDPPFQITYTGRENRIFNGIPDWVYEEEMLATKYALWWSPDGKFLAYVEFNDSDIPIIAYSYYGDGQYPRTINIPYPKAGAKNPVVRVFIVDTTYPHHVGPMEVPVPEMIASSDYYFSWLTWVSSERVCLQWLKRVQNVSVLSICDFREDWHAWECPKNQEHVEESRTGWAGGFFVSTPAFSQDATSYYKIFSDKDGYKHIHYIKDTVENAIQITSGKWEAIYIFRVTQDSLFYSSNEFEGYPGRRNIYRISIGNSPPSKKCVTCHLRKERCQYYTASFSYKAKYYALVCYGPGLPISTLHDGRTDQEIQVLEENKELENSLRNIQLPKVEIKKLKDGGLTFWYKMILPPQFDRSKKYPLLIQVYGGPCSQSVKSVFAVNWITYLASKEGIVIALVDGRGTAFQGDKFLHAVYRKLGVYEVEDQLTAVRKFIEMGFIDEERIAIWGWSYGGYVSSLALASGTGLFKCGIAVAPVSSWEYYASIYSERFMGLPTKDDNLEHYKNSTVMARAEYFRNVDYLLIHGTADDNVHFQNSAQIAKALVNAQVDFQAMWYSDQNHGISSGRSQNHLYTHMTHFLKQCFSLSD
Description: FRET-quench assay: probe cleavage by recombinant mouse FAP. Conditions: 1 nM recombinant mouse FAP; 3 μM peptide. The text has this: (§1) Human prolyl oligopeptidase (PREP, 4308-SE), DPPIV (1180-SE), DPP9 (5419-SE), and DPPII/DPP7 (3438-SE) proteins were purchased from R&D Systems. Human DPP8 (BML-SE527) protein was purchased from Enzo Life Sciences. N-terminal octa-His-tagged human and mouse FAP proteins containing the extracellular domain (residues L26-D760 and L26-D761, respectively) were purified from the conditioned media of transiently-transfected CHO cells, by immobilized metal affinity chromatography (IMAC), followed by size exclusion chromatography (SEC).
(§2) Peptides of the region flanking the C-terminal human FGF21 cleavage site (VGPSQG) or a variant with D-alanine at P2 (VaPSQG) were synthesized (Anaspec, Inc.), containing an amine-terminal donor (HyLite Fluor 488 or Cy5.5 for aP NIRF) and a dark quencher-acceptor (QXL 520 or QSY21 for aP NIRF) conjugated to a supplementary C-terminal lysine. ANPFAP (Bioconjugate Chem 23:1704-11) and aP NIRF were synthesized by CPC Scientific (Sunnyvale, Calif.). Assays were conducted at 37° C. in 50 mM HEPES (pH 7.2), 150 mM NaCl, 1 mM EDTA, 0.1 mg/ml BSA. The excitation/emission wavelengths of cleaved peptide are 490/520 nm or 675/695 nm for ANPFAP and aP NIRF. Fluorescence was monitored on a Tecan M1000 Pro plate reader in kinetic mode. […]

Data set [1] concerns human S9 and S28 peptidases. Description: aP cleavage by a panel of recombinant human prolyl peptidases. To be noted: each recombinant peptidase at 2.5 μg/ml.
Source text: as §1, §2

In data set [2] the test system is human or mouse recombinant FAP. Description: Michaelis-Menten kinetics of GP and aP cleavage by recombinant FAP. To be noted: corrected for active enzyme concentration. How it is done:
Michaelis-Menten kinetic measurements were carried out using 5 nM human or mouse recombinant FAP, with a series of peptide substrate titrations. Initial rate of substrate hydrolysis was determined using the Magellan software on a Tecan M1000 Pro plate reader and kinetic parameters were modeled using nonlinear regression analysis with GraphPad Prism software. Standard error was calculated from three experimental replicates.
As described by Copeland ((2000) Enzymes: a practical introduction to structure, mechanism, and data analysis, 2nd ed., J. Wiley, New York) the active enzyme concentration was determined from the x-intercept.

For the next data set, the target named is T2, serum FAP (Homo sapiens, UniProt Q12884).
T2 construct: the extracellular domain encoding the active enzyme can be shed from the cell surface; tissue Discovery Life Sciences, Inc. (part of the samples); host or cells: human serum (healthy donors, cirrhosis patients)
T2 sequence (Q12884 24-760 limits assumed): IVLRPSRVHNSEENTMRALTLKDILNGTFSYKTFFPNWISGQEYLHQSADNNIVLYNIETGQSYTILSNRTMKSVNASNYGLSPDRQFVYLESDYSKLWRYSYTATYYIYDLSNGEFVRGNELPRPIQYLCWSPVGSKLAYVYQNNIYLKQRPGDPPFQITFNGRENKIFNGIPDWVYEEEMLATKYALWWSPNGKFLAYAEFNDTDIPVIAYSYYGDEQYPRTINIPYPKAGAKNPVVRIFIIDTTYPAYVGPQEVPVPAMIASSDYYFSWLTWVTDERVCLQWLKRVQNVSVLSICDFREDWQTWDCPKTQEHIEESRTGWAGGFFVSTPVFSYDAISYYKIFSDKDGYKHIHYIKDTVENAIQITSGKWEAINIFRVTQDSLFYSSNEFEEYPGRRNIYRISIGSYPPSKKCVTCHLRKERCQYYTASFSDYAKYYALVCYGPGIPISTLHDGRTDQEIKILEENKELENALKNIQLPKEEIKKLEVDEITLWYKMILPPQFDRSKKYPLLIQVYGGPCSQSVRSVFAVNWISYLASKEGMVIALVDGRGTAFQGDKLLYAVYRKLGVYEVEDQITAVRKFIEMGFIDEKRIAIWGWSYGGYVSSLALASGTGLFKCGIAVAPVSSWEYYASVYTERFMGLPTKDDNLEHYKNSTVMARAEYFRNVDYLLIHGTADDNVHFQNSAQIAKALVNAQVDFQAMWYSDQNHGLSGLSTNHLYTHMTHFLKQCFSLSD
Description: aP probe fluorescence assay of FAP activity in human serum versus FAP ELISA. As for the experimental part:
Mouse plasma samples were prepared in K3-EDTA MiniCollect tubes (Greiner Bio-One, 450475) and frozen immediately at −80° C. prior to analysis. Human serum samples were obtained from healthy donors or purchased from Discovery Life Sciences, Inc. (Los Osos, Calif.).
Serum FAP concentration was measured using the human FAP DuoSet ELISA kit (R&D Systems, DY3715), according to the manufacturer's protocol.
Peptides of the region flanking the C-terminal human FGF21 cleavage site (VGPSQG) or a variant with D-alanine at P2 (VaPSQG) were synthesized (Anaspec, Inc.), containing an amine-terminal donor (HyLite Fluor 488 or Cy5.5 for aP NIRF) and a dark quencher-acceptor (QXL 520 or QSY21 for aP NIRF) conjugated to a supplementary C-terminal lysine. ANPFAP (Bioconjugate Chem 23:1704-11) and aP NIRF were synthesized by CPC Scientific (Sunnyvale, Calif.). Assays were conducted at 37° C. in 50 mM HEPES (pH 7.2), 150 mM NaCl, 1 mM EDTA, 0.1 mg/ml BSA. The excitation/emission wavelengths of cleaved peptide are 490/520 nm or 675/695 nm for ANPFAP and aP NIRF. Fluorescence was monitored on a Tecan M1000 Pro plate reader in kinetic mode. Except where indicated otherwise, measurements of serum or plasma FAP activity were performed with the peptide substrate concentration at 6 μM and a 10-fold dilution of serum or plasma in assay buffer.

For “GP probe: human FGF21 cleavage-site peptide VGPSQG with amine-terminal HyLite Fluor 488 donor and QXL 520 quencher on supplementary C-terminal lysine ({HyLite Fluor 488}-VGPSQGK(QXL 520))”, the “cleavage by recombinant mouse FAP” value in the data set with recombinant mouse FAP is given as “cleaved”.
In the case of “aP probe: FGF21-based peptide VaPSQG (D-alanine at P2) with HyLite Fluor 488 donor and QXL 520 quencher”, the “cleavage by human S9 and S28 peptidases” value in data set [1] is recorded as “did not exhibit an ability to cleave”. In data set [2], the “Km relative to parental GP peptide” value is reported as “essentially unchanged” and the “decrease in kcat relative to GP peptide” value is “seven to eight-fold decrease”. Further, the “lowest FAP level detected with the activity assay” value with serum FAP came out at 63 ng/mL.
